Assay results taken from PMC6080896.

Target: Venus-tagged CaV1.1 CI (Ven-CaV1.1 CI) (UniProt P07293)
Test: FRET or BRET

Cer-tagged stac3 variant K[288]* (domain or fragment), sequence (Q96MF2 whole entry, change not shown, the tested form may be a part): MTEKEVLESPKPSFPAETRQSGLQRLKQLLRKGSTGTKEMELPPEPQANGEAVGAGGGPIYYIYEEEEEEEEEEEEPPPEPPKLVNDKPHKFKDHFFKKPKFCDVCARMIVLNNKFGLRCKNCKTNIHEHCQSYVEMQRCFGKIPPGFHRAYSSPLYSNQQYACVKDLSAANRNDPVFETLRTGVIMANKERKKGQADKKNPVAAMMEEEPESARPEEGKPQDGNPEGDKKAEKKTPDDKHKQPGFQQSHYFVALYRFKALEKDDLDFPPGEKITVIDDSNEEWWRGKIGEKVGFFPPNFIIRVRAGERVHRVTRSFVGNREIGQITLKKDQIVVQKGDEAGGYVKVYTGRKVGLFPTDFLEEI
Cer-tagged stac3 variant W[284]S (Native American myopathy) (natural protein), sequence (Q96MF2 whole entry, change not shown): as the sequence (Q96MF2 whole entry, change not shown, the tested form may be a part) above
Cer-tagged stac3 variant L[111]Δ (natural protein), sequence (Q96MF2 whole entry, stated change not applied): as the sequence (Q96MF2 whole entry, change not shown, the tested form may be a part) above

Row | Substance | fold weakening of affinity against WT stac3 [fold] | also measured
1 | Cer-tagged stac3 (wild type) (natural protein) | – | Kd: 400 nM
2 | Cer-tagged stac3 variant K[288]* (domain or fragment) | – | fold reduction of binding against WT stac3: 2 fold
3 | Cer-tagged stac3 variant L[111]Δ (natural protein) | 10 | –
4 | Cer-tagged stac3 variant W[284]S (Native American myopathy) (natural protein) | 10 | –
